Assays:
[1] = biological target: recombinant hSIRPa-His (Sino Biologicals, reference 11612-H08H) (human) (UniProt P78324); experiment: ELISA, immobilized hSIRPa-His, anti-human IgG detection
[2] = biological target: SIRPγ on peripheral human CD3+ T cells (human) (UniProt Q9P1W8); experiment: flow cytometry on human CD3+ T cells, antibody at 10 micrograms/ml
[3] = biological target: SIRPγ on peripheral human CD3+ T cells (human) (UniProt Q9P1W8); experiment: flow cytometry on peripheral human CD3+ T cells, 10 µg/ml; Exp 1 HV1
[4] = biological target: SIRPγ on peripheral human CD3+ T cells (human) (UniProt Q9P1W8); experiment: flow cytometry on peripheral human CD3+ T cells, 10 µg/ml; Exp 1 HV2
[5] = biological target: SIRPa on human monocytes (human) (UniProt P78324); experiment: flow cytometry on human monocytes v1/v1 (Fc receptors blocked), PE anti-human Fc; readout MFI
[6] = biological target: recombinant hSIRPb-His (Antibodies-online, reference ABIN3077231) (human) (UniProt Q5TFQ8); experiment: BLI (Blitz): SIRPb-His on Ni-NTA biosensor, antibody at 20 µg/ml; 120 s association, 120 s dissociation
Chain of recombinant hSIRPb-His (Antibodies-online, reference ABIN3077231) (human) (Q5TFQ8 30-371): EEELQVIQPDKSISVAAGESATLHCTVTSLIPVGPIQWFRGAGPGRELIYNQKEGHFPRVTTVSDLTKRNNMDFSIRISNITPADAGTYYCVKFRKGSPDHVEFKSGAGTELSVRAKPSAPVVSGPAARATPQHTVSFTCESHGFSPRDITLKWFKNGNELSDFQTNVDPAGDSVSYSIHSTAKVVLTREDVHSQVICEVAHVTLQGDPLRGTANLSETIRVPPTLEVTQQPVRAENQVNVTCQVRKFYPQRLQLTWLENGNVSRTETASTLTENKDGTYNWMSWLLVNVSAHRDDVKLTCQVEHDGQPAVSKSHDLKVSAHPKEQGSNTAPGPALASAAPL

[7] = biological target: SIRPa on human monocytes (human) (UniProt P78324); experiment: flow cytometry on human monocytes v1/v1 (Fc receptors blocked), PE anti-human Fc; readout % stained monocytes
[8] = biological target: recombinant hSIRPa-His (Sino Biologicals, reference 11612-H08H) (human) (UniProt P78324); experiment: SPR (Biacore 3000); SIRPa-His immobilised on a CM5 chip (500 RU), antibody injected; 3 min association, 10 min dissociation
[9] = biological target: recombinant hSIRPg-His (Sino Biologicals, reference 11828-H08H) (human) (UniProt Q9P1W8); experiment: BLI (Blitz): SIRPg-His on Ni-NTA biosensor, antibody at 10 µg/ml or 20 µg/ml (Example 9); 120 s association, 120 s dissociation
Chain of recombinant hSIRPg-His (Sino Biologicals, reference 11828-H08H) (human) (Q9P1W8 29-360): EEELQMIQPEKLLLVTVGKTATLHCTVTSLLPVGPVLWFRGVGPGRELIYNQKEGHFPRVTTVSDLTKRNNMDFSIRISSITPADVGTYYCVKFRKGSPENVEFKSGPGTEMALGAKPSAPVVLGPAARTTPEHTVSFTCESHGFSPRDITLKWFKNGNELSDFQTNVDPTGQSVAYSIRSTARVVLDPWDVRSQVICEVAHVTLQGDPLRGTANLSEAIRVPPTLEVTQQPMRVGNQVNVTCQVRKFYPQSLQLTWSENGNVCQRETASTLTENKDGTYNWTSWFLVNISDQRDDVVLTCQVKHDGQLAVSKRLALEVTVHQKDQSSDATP

Chain of SIRPγ on peripheral human CD3+ T cells (human) (Q9P1W8 29-387): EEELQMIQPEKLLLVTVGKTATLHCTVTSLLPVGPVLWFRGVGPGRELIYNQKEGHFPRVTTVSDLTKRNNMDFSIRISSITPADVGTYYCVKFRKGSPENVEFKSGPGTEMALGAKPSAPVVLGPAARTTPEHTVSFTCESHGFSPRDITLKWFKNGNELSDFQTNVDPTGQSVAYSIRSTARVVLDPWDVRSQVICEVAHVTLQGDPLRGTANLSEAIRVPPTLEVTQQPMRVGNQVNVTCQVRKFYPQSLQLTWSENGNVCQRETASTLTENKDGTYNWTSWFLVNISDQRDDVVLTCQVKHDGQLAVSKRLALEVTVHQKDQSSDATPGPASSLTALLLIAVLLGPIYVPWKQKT

B1: anti-human SIRPa antibody Kwar23 (Creative Biolabs) (antibody, from a related filing, V domains shown)
VH: EVQLQQSGAELVKPGASVKLSCTASGFNIKDYYIHWVQQRTEQGLEWIGRIDPEDGETKYAPKFQDKATITADTSSNTAYLHLSSLTSEDTAVYYCARWGAYWGQGTLVTVSS
VL: QIVLTQSPAIMSASPGEKVTLTCSASSSVSSSYLYWYQQKPGSSPKLWIYSTSNLASGVPARFSGSGSGTSYSLTISSMEAEDAASYFCHQWSSYPRTFGAGTKLELK
EC50 [1]: 0.0033 mg/L
percent of T cells stained [2]: > 70%
% of positive T-cells [3]: 80%
% of positive T-cells [4]: 89.3%
EC50 [5]: 0.378 mg/L
Kd [6]: 2.77 nM
EC50 [7]: 0.26 mg/L
Kd [8]: 0.367 nM
Kd [9]: 2.14 nM
